This data set has as its target vimentin (human, UniProt P08670 2-466). Put plainly: filter binding; Filter binding: 20 mM Tris, 150 mM NaCl, pH 8.0, 2 h, room temperature, 10 uL; flow cytometry: fixed IGROV cells, 22 C, 1 h; microscopy: 37 C, 1 h. Particulars: label: 5'-biotin; predicted stem-loop.

The values below come from publication PMC8588432, “Selection and Characterization of Vimentin-Binding Aptamer Motifs for Ovarian Cancer”.

A word on the Kd: it is the free concentration of one partner at which half of the binding sites on the other are occupied at equilibrium, for simple one-to-one binding.

vimentin, sequence (P08670 2-466): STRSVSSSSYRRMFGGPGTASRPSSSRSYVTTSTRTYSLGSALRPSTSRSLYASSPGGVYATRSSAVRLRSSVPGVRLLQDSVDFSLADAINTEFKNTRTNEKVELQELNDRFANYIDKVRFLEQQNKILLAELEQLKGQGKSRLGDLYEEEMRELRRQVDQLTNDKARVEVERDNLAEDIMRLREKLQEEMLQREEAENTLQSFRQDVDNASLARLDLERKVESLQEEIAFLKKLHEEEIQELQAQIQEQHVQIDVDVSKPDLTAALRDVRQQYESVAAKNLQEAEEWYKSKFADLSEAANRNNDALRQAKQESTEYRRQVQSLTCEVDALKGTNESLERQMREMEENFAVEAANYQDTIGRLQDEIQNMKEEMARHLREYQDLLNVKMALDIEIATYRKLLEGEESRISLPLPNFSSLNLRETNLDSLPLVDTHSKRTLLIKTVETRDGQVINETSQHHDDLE

B1: V5M2 (XNA)
DNA: TAGACCCAGCTGGTCCGGAAAATAAGATGTCACGGATCCTC
modifications: monothioated phosphates 3' of adenines (shown in red, positions not in text)
For B1, the Kd is 47.4 nM.

B2: V3M2 (XNA)
DNA: ACCTCTTCAAGAACATCCCTGTCACGGATCCTCTAGAGCA
modifications: monothioated phosphates 3' of adenines (shown in red, positions not in text)
As to B2, the Kd was 18.9 nM.
